From patent US20240084003A1 (SIMCERE ZAIMING PHARMACEUTICAL, published 2024)
Residue numbers refer to the chain shown, from its start.

T1: human CD22-ECD-His protein (human, UniProt P20273 20-687)
T1 construct: Made in house in HEK293E; also called hCD22-ECD-His; recombinant human CD22-ECD His protein; not shown: His tag
T1 sequence: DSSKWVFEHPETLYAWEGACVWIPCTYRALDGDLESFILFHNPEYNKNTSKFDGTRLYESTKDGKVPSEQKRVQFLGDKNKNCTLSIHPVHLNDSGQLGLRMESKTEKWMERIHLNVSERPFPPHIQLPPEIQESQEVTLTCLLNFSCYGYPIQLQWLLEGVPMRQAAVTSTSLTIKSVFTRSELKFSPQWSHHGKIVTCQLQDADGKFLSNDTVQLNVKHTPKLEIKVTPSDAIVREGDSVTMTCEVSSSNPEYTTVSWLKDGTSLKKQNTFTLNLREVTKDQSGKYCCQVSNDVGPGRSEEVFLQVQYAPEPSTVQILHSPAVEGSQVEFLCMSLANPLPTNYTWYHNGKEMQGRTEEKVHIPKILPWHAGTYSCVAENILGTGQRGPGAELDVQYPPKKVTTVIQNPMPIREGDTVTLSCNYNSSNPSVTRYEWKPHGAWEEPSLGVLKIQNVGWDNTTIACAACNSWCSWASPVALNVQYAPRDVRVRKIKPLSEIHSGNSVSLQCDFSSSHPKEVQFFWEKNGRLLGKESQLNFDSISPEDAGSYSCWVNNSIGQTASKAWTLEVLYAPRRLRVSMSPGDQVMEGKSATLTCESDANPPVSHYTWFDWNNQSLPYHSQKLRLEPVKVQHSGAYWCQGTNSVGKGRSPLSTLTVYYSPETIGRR

T2: murine CD22 protein (ACROBiosystems, SI2-M52Ha) (murine, UniProt P35329 22-708)
T2 construct: extracellular domain; also called murine CD22-ECD; murine CD22-ECD-His
T2 sequence (looked up): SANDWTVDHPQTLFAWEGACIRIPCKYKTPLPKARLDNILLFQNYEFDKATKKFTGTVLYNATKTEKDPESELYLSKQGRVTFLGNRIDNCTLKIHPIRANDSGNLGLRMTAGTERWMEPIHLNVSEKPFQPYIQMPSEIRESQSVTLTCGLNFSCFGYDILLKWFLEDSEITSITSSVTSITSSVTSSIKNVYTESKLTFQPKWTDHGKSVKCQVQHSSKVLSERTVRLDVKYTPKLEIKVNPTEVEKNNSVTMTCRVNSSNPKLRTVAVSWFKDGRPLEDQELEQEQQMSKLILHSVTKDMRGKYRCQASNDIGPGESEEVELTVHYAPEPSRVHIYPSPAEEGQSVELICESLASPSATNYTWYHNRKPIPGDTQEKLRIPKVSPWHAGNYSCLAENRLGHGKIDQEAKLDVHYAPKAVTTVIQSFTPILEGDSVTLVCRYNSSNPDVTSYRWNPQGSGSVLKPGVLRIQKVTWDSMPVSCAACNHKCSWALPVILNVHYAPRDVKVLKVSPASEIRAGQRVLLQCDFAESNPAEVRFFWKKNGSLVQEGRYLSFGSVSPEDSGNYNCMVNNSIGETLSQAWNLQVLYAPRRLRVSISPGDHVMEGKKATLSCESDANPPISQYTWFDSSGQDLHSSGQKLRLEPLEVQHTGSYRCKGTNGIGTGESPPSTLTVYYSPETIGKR

T3: human CD22 domain1-4-His (human, UniProt P20273 20-425)
T3 construct: also called hCD22 domain1-4-His; not shown: His tag
T3 sequence: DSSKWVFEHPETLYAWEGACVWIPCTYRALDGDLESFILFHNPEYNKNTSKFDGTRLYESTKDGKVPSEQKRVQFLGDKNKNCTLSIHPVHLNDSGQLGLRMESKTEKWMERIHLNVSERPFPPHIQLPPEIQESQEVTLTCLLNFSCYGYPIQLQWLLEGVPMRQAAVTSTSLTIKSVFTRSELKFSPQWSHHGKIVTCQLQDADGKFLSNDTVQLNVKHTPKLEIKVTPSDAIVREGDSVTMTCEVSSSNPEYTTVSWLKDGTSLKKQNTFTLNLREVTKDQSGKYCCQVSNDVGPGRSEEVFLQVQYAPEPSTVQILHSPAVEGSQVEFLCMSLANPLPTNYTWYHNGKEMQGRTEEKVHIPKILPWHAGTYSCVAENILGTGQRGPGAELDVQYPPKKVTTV

T4: human CD22 domain5-7-His (human, UniProt P20273 414-687)
T4 construct: also called hCD22 domain5-7-His; not shown: His tag
T4 sequence: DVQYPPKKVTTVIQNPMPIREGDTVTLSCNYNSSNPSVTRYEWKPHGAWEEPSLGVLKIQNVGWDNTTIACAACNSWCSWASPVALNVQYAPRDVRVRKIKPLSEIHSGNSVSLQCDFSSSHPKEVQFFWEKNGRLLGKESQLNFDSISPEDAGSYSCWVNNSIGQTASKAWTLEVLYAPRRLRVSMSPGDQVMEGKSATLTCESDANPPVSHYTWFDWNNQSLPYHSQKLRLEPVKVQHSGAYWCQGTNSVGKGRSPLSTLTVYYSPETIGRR

B1: F2.127.11 (antibody, human IgG1, lambda, V domains shown)
VH: QVTLKESGPGILQPSQTLSLTCSFSGFSLSTFGMGVGWIRQPSGKGLEWLAHIWWDDDKHYNPALKSRLTISKDTSRNQVFLKIANVDTADGATYFCARDNWVSSLDYWGQGTSVIVSS
VL: QPVITQSSSASFSLGASAELTCTLSSQHSTYTIEWYQQQPLKPPKYVMGLKKDGSHSTGDGIPDRFSGSSSGADRYLSISNIQPEDEAIYICGVSDTIKEQFVYVFGGGTKVTVLG
notes: Human-murine chimeric IgG1, lambda
B2: F1.192.1 (antibody, human IgG1, kappa, V domains shown)
VH: AVQLQQSGVELVRPGASVKLSCTGSDFNIKEDYIHWVKQRPEQGLEWIGWIDPENGDTEYASKFQGKATITADTSSNTAYLQLSSLTSEDTAVYYCATYGSLDYWGQGTTLTVSS
VL: DIKMTQSPSSMYAFLGERVTITCKASQGINSFLTWFQQKPGKSPKTLIYRANRLVDGVPSRFSGSGSGQDYSLTISSLEYEDVGIYYCLQYDEFPRTFGGGTKLEIKR
notes: Human-murine chimeric IgG1, kappa
B3: F1.267.9 (antibody, human IgG1, kappa, V domains shown)
VH: EVQLQQSGPVLVKPGASVKMSCKASGYTFTDFYMNWAKQSHGKSLEWVGVINPYNGGINYNQKFKGKATLTVDKSSSTAYMEFNSLTSEDSAVYYCARRMEYHAMDYWGQGTSVTVSS
VL: DIVLTQSPASLAVSLGQRATISCRASESVDNYGFDFIHWYQQKPGQPPKLLIYRASNLESGIPARFSGSGSRPDFTLTINPVETDDVATYYCQQSIKDPWTFGGGTKLEIKR
notes: as for B2
B4: F1.7.6 (antibody, human IgG1, kappa, V domains shown)
VH: EIQLQQSGPELVKPGTSVKVSCKASGYDFTRYNMYWVKQSHGKSLEWIGYIDPYNGDTRYNQKFKGKATLTVDKSSSTAYMHLNSLTSEDSAVYYCEAIYYDMEGYALDYWGQGTSVTVSS
VL: DIVMSQSPSSLAVSVGEKVTMSCKSSQSLLYSNNQKNYLAWYQQKPGQSPKKLIYWASTRESGVPDRLTGSGSGTDFTLTISSVTAEDLAVYYCQQFYSYPWTFGGGTKLEIKR
notes: as for B2
B5: F2.99.1 (antibody, human IgG1, lambda, V domains shown)
VH: QVTLKESGPGILQPSQTLSLTCSFSGFSLSTFPMGVGWIRQPSGKGLEWLAHIWWDDDEYYNPVLKSRLTISKDTSKKQVYLRIANVDTVDTATYYCTRANWDRWYFDVWGTGTTVTVSS
VL: QLVLTQSSSASFSLGASAKLTCTLSRQHSAYTIEWYQQQPLKPPKYVMEVKKDGSHSTGDGIPDRFSGSSSGADRYLSISNIQPEDEAIYICGVGDTIKEHFVFGGGTKVTVLG
notes: as for B1
B6: F2.42.9 (antibody, human IgG1, lambda, V domains shown)
VH: QVTLKESGPGILQPSQTLSLTCSFSGFSLSTFDRGVGWIRQPSGKGLEWLAHIWWNDKKFYNPVLKSRLTISKDTSKNQVFLTIANVDSADTATYSCARIVWDKYYFDYWGQGIPLTVSS
VL: B5 VL with R26S, Y46F, E49D, V50L, D64A, S78T, H101Q, F102Y
notes: as for B1

Each binder was assayed against T1, human CD22-ECD-His protein (assay: ELISA, Ab 0.01 nM).
Method: (§1) In order to detect the binding activity of CD22 human-murine chimeric antibodies to CD22 protein, the purified human CD22-ECD-His protein obtained in Example 2 was diluted with PBS to a final concentration of 2 μg/mL, and then added to 96-well ELISA plate at 100 μl/well. The plate was sealed with plastic film and incubated overnight at 4° C., the plate was washed 2 times with PBS the next day, and then a blocking solution [PBS+2% (w/w) BSA] was added for blocking at room temperature for 2 hours. […] After incubation at 37° C. for 2 hours, the plate was washed 3 times with PBS. HRP (horseradish peroxidase)-labeled secondary antibody (purchased from Sigma, catalog number: A0170) was added, and incubated at 37° C. for 2 hours, and the plate was washed 5 times with PBS. TMB substrate was added at 50 μl/well, and incubated at room temperature for 30 minutes, then a stop solution (1.0 N HCl) was added at 50 μl/well.

Binder	OD450
B1	1.34 OD450
B2	1.79 OD450
B3	1.47 OD450
B4	2.2 OD450
B5	1.45 OD450
B6	1.95 OD450

These binders were tested against T1, human CD22-ECD-His protein (assay: ELISA, Ab 0.10 nM).
Method: as §1

Binder	OD450
B1	1.91 OD450
B2	2.52 OD450
B3	2.39 OD450
B4	2.51 OD450
B5	2.1 OD450
B6	2.58 OD450

These binders were tested against T1, human CD22-ECD-His protein (assay: ELISA, Ab 0.001 nM).
Method: as §1

Binder	OD450
B1	0.5 OD450
B2	0.46 OD450
B3	0.34 OD450
B4	1.19 OD450
B5	0.51 OD450
B6	0.68 OD450

The binders below were run against T1, human CD22-ECD-His protein (assay: ELISA, Ab 10.00 nM).
Method: as §1

Binder	OD450
B1	1.98 OD450
B2	2.57 OD450
B3	2.55 OD450
B4	2.46 OD450
B5	2.06 OD450
B6	2.68 OD450

These binders were tested against T1, human CD22-ECD-His protein (assay: ELISA, Ab 0.0001 nM).
Method: as §1

Binder	OD450
B1	0.26 OD450
B2	0.1 OD450
B3	0.1 OD450
B4	0.34 OD450
B5	0.27 OD450
B6	0.19 OD450

What follows are binders tested against T1, human CD22-ECD-His protein (assay: ELISA, Ab 100.00 nM).
Method: as §1

Binder	OD450
B1	1.92 OD450
B2	2.71 OD450
B3	2.56 OD450
B4	2.88 OD450
B5	2.1 OD450
B6	3.14 OD450

What follows are binders tested against T1, human CD22-ECD-His protein (assay: ELISA, Ab 0.00001 nM).
Method: as §1

Binder	OD450
B1	0.21 OD450
B2	0.06 OD450
B3	0.06 OD450
B4	0.15 OD450
B5	0.08 OD450
B6	0.09 OD450

These binders were tested against T1, human CD22-ECD-His protein (assay: ELISA, human CD22-ECD-His coated).
Method: as §1

Binder	EC50 (read off the curve)
B1	~0.05 nM
B2	~0.05 nM
B3	~0.08 nM
B4	~0.02 nM
B5	~0.04 nM
B6	~0.04 nM

Each binder was assayed against T2, murine CD22 protein (ACROBiosystems, …) (assay: ELISA, murine CD22-ECD-His coated).
Method: as §1
In order to detect the species cross-binding activity of the chimeric antibodies, an ELISA plate was coated with commercial murine CD22 protein (ACROBiosystems, catalog number: SI2-M52Ha) and monkey CD22 protein (ACROBiosystems, catalog number: SI2-R52Ha), respectively, and the ELISA detection was performed according to the method in Example 5.1.

Binder	binding result
B1	no binding (tested: 100 nM)
B2	no binding (tested: 100 nM)
B3	no binding (tested: 100 nM)
B4	no binding (tested: 100 nM)
B5	no binding (tested: 100 nM)
B6	no binding (tested: 100 nM)

The binders below were run against T3, human CD22 domain1-4-His (assay: ELISA, human CD22 domain1-4-His coated).

Binder	EC50 (read off the curve)	binding result
B1	~0.1 nM	–
B2	–	no binding (tested: 100 nM)
B3	~0.2 nM	–
B4	~0.03 nM	–
B5	~0.05 nM	–
B6	~0.04 nM	–

What follows are binders tested against T4, human CD22 domain5-7-His (assay: ELISA, human CD22 domain5-7-His coated).

Binder	binding result	EC50 (read off the curve)
B1	no binding (tested: 100 nM)	–
B2	–	~0.1 nM
B3	no binding (tested: 100 nM)	–
B4	no binding (tested: 100 nM)	–
B5	no binding (tested: 100 nM)	–
B6	no binding (tested: 100 nM)	–
